For the data set, the system named is synthetic TNF-derived myristoylated peptide.

The values that follow come from patent US20240277868.

Take “purified recombinant His-tagged wild type SIRT6”: the KmPEP was 61.1 µM.
